# Measured values published in patent US20260116963A1 (GENERATE BIOMEDICINES, published 2026).
# Where a chain is given by its changes, count along the chain named.
# B1: AbAB (antibody, human IgG1, kappa)
# heavy: QVTLRESGPALVKPTQTLTLTCTVSGASLSAYSVNWIRQPPGKALEWLAMIWGDGKIVYNSALKSRLTISKDTSKNQVVLTMTNMDPVDTATYYCAGDGYFPYAMDNWGQGSLVTVSSASTKGPSVFPLAPSSKSTSGGTAALGCLVKDYFPEPVTVSWNSGALTSGVHTFPAVLQSSGLYSLSSVVTVPSSSLGTQTYICNVNHKPSNTKVDKRVEPKSCDKTHTCPPCPAPEFEGGPSVFLFPPKPKDTLYITREPEVTCVVVDVSHEDPEVKFNWYVDGVEVHNAKTKPREEQYNSTYRVVSVLTVLHQDWLNGKEYKCKVSNKALPASIEKTISKAKGQPREPQVYTLPPSREEMTKNQVSLTCLVKGFYPSDIAVEWESNGQPENNYKTTPPVLDSDGSFFLYSKLTVDKSRWQQGNVFSCSVMHEALHNHYTQKSLSLSPGK
# light: DIVMTQSPDSLSVSLGERATINCRASKSVDSYGNSYMHWYQQKPGQPPKLLIYLASNLESGVPDRFSGSGSGTDFTLTISSLQAEDVAVYYCQQNNEDPRTFGGGTKVEIKRTVAAPSVFIFPPSDEQLKSGTASVVCLLNNFYPREAKVQWKVDNALQSGNSQESVTEQDSKDSTYSLSSTLTLSKADYEKHKVYACEVTHQGLSSPVTKSFNRGEC
# notes: same variable regions as AbG; also called Antibody AbAB
# B2: Ref2 (antibody, human IgG4 S228P, kappa)
# heavy: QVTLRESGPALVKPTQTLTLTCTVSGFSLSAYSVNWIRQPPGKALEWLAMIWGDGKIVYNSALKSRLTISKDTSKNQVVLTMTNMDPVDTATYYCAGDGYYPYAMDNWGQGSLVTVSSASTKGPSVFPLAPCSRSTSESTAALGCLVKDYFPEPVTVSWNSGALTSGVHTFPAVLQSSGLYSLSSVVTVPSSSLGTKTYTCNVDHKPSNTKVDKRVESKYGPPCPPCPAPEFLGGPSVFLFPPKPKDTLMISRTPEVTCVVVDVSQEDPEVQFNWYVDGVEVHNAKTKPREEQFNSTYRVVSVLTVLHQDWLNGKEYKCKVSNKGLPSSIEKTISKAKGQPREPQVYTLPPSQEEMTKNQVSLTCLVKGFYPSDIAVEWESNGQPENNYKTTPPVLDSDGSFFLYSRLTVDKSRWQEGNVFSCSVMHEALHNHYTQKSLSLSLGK
# light: B1 light with Y36F
# notes: hIgG4; copies: 2 + 2
# Legend:
# human FcγRIIIa-V176 = human FcγRIIIa-V176 (human, UniProt P08637 17-208, biotinylated (site not stated)); assay: BLI (Octet RH96), biotinylated Fcγ receptor on streptavidin sensors, antibody at 10,000 nM
# human FcγRIIIa-V176, sequence (P08637 17-208 F176V limits assumed): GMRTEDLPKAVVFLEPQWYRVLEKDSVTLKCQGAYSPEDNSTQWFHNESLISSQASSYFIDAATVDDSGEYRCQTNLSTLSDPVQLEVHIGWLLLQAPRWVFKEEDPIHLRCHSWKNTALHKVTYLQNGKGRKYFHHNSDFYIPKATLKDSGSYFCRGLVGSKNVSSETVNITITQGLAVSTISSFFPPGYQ
# human FcγRIIIa-F176 = human FcγRIIIa-F176 (human, UniProt P08637 17-208, biotinylated (site not stated)); assay: as above
# human FcγRIIIa-F176, sequence (P08637 17-208 limits assumed): as the sequence (P08637 17-208 F176V limits assumed) above, with V160F counted along it
# human IL-13 [1] = molecular target: T1, human IL-13 (human, UniProt P35225 25-146, limits assumed); assay: cell-based or functional assay
# T1 sequence (P35225 other isoform, or with tags, fused parts or gaps limits assumed): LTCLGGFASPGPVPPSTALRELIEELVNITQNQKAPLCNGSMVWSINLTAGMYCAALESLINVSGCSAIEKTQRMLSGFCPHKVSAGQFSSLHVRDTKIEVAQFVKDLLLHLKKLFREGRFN
# human FcγRIIIb-NA1 = human FcγRIIIb-NA1 (human, UniProt O75015 17-200, limits assumed, biotinylated (site not stated)); assay: BLI (Octet RH96), biotinylated Fcγ receptor on streptavidin sensors
# human FcγRIIIb-NA1, sequence (O75015 other isoform, or with tags, fused parts or gaps limits assumed): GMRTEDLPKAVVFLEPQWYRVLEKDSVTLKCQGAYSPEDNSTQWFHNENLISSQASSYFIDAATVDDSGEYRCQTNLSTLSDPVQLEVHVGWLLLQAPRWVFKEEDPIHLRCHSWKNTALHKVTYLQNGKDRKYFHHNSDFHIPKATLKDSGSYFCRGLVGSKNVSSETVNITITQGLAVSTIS
# human FcγRIIIb-NA2 = human FcγRIIIb-NA2 (human, UniProt O75015 17-200, limits assumed, biotinylated (site not stated)); assay: as above
# human FcγRIIIb-NA2, sequence (O75015 17-200 N65S limits assumed): as the sequence (O75015 other isoform, or with tags, fused parts or gaps limits assumed) above, with R20S, N49S, D66N, V90I counted along it
# HIS-tagged human FcRn [2] = molecular target: T2, HIS-tagged human FcRn (human, UniProt P55899 24-297; P61769 21-119); assay: SPR (Biacore 8K+), pH 6.0, 25 C, steady-state fit
# T2 construct: not shown: HIS tag
# T2 sequence (P55899 24-297 limits assumed, chain 1 of 2): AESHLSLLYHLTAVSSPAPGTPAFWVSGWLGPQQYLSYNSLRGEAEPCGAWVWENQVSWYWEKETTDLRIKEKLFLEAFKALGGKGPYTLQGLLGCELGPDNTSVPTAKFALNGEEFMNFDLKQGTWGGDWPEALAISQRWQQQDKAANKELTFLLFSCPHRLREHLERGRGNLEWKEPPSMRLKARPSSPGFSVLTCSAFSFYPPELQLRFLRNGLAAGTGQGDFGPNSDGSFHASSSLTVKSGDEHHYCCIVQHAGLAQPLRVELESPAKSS
# T2 sequence (P61769 21-119 limits assumed, chain 2 of 2): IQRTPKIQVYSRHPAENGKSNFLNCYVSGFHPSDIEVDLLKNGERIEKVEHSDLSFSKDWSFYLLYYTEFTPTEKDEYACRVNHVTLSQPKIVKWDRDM
# human IL-13 [3] = molecular target: T1, human IL-13; assay: cell-based or functional assay; remark: listed apart in the source
# human IL-13 [4] = molecular target: T1, human IL-13; assay: SPR (Biacore 8K+), antibody captured on anti-human Fc CM4 chip, human IL-13 0.6-10 nM as analyte, 37 C, 1:1 fit
# mouse IL-13 = molecular target: T3, mouse IL-13 (mouse, UniProt P20109 19-131, limits assumed); assay: SPR (Biacore 8K+), antibody captured on anti-human IgG Fc chip, IL-13 as analyte, 25 C
# T3 construct: also called recombinant mouse IL-13
# T3 sequence (looked up): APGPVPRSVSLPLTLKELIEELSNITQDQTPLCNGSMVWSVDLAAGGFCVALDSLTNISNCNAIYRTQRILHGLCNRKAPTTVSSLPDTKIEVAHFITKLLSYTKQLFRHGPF
# human FcγRIIa-H167 [5] = molecular target: T4, human FcγRIIa-H167 (human, UniProt P12318 36-218, limits assumed, biotinylated (site not stated)); assay: BLI (summary of Example 8)
# T4 sequence (looked up): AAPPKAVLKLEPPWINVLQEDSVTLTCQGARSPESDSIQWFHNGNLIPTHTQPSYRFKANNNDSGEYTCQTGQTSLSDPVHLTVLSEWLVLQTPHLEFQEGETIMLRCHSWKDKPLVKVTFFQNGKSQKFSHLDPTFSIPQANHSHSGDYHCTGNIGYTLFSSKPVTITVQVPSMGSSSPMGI
# human FcγRI [6] = molecular target: T5, human FcγRI (human, UniProt P12314 16-288, limits assumed, biotinylated (site not stated)); assay: BLI (summary of Example 8)
# T5 sequence (P12314 16-288 limits assumed): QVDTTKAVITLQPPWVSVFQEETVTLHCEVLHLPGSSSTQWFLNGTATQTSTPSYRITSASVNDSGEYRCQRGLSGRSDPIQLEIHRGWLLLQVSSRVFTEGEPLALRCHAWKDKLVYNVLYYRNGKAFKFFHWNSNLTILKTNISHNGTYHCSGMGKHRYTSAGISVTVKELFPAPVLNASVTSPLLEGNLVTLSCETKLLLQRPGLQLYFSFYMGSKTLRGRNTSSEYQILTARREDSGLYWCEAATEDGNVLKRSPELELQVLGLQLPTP
# human FcγRIIa-R167 [7] = molecular target: T6, human FcγRIIa-R167 (human, UniProt P12318 36-218, limits assumed, biotinylated (site not stated)); assay: BLI (summary of Example 8)
# T6 sequence (looked up): T4 sequence (looked up) with H132R
# human FcγRIIb [8] = molecular target: T7, human FcγRIIb (human, UniProt P31994 46-217, limits assumed, biotinylated (site not stated)); assay: BLI (summary of Example 8)
# T7 sequence (looked up): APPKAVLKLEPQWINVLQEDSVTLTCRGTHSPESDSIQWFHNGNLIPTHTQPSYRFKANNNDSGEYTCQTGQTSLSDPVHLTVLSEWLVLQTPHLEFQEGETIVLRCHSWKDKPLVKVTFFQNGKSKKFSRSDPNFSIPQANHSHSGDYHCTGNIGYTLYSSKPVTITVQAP
# cynomolgus IL-13 = cynomolgus IL-13 (cynomolgus, UniProt Q0PW92 21-132); assay: cell-based or functional assay
# cynomolgus IL-13, sequence (Q0PW92 entry or part of it): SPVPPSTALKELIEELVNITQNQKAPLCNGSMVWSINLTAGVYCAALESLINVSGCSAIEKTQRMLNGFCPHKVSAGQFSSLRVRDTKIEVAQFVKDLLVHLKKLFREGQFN
# HIS-tagged human FcRn [9] = molecular target: T2, HIS-tagged human FcRn; assay: SPR (Biacore 8K+), antibody captured on anti-human Fab CM4 chip, HIS-tagged human FcRn 9.8-5000 nM as analyte, pH 6.0, 25 C, steady-state fit
# human FcγRIIa-H167 [10] = molecular target: T4, human FcγRIIa-H167; assay: BLI (Octet RH96), biotinylated Fcγ receptor on streptavidin sensors, antibody at 10,000 nM
# human FcγRI [11] = molecular target: T5, human FcγRI; assay: as above
# human FcγRIIa-R167 [12] = molecular target: T6, human FcγRIIa-R167; assay: as above
# human FcγRIIb [13] = molecular target: T7, human FcγRIIb; assay: as above
# human IL-13 [14] = molecular target: T1, human IL-13; assay: cell-based or functional assay; remark: listed apart in the source
# human IL-13 [15] = molecular target: T1, human IL-13; assay: SPR (Biacore 8K+), antibody captured on anti-human pAb CM4 chip, human IL-13 0.6-10 nM as analyte, 37 C, 1:1 fit
# human IL-13 [16] = molecular target: T1, human IL-13; assay: KinExA, solution equilibrium, free antigen captured on Ref1-coated beads, 25 C
binder,measurement,setting,value
B1,binding result,human FcγRIIIa-V176,binds
same,binding result,human FcγRIIIa-F176,binds
same,"Mean IC50 (nM), HEK-Blue IL-4/IL-13 assay with 3.7 nM IL-13",human IL-13 [1],0.113 nM
same,binding result,human FcγRIIIb-NA1,"no binding (tested: 10,000 nM)"
same,binding result,human FcγRIIIb-NA2,"no binding (tested: 10,000 nM)"
same,fold higher affinity than Ref2,HIS-tagged human FcRn [2],6 fold
same,"Mean IC50 (nM) Donor 1, Phospho-STAT6 assay in human CD14+ monocytes",human IL-13 [3],34.9 nM
same,"Mean IC50 (nM) Donor 2, Phospho-STAT6 assay in human CD14+ monocytes",human IL-13 [3],33 nM
same,"Mean IC50 (nM) Donor 3, Phospho-STAT6 assay in human CD14+ monocytes",human IL-13 [3],37.7 nM
same,Kd,human IL-13 [4],0.00722 nM
same,koff,human IL-13 [4],4.85e-06 s⁻¹
same,kon,human IL-13 [4],676000 M⁻¹ s⁻¹
same,binding result,mouse IL-13,no binding
same,binding result,human FcγRIIa-H167 [5],binds
same,binding result,human FcγRI [6],binds
same,binding result,human FcγRIIa-R167 [7],binds
same,binding result,human FcγRIIb [8],binds
same,"Mean IC50 (nM) Donor 1, Phospho-STAT6 assay in cynomolgus CD14+ monocytes",cynomolgus IL-13,18.8 nM
same,"Mean IC50 (nM) Donor 2, Phospho-STAT6 assay in cynomolgus CD14+ monocytes",cynomolgus IL-13,15.1 nM
same,"Mean IC50 (nM) Donor 3, Phospho-STAT6 assay in cynomolgus CD14+ monocytes",cynomolgus IL-13,18.1 nM
same,Kd,HIS-tagged human FcRn [9],129 nM
B2,binding result,human FcγRIIa-H167 [10],binds
same,binding result,human FcγRI [11],binds
same,binding result,human FcγRIIIa-F176,binds
same,binding result,human FcγRIIa-R167 [12],binds
same,binding result,human FcγRIIb [13],binds
same,binding result,human FcγRIIIb-NA1,"no binding (tested: 10,000 nM)"
same,binding result,human FcγRIIIb-NA2,"no binding (tested: 10,000 nM)"
same,"IC50, HEK-Blue IL-13Ra1/IL-4Ra STAT6-SEAP reporter assay",human IL-13 [14],0.277 µg/mL
same,Kd,human IL-13 [15],0.0512 nM
same,koff,human IL-13 [15],3.22e-05 s⁻¹
same,kon,human IL-13 [15],695000 M⁻¹ s⁻¹
same,binding result,mouse IL-13,no binding
same,Kd,HIS-tagged human FcRn [9],734 nM
same,Kd,human IL-13 [16],0.00909 nM
same,koff,human IL-13 [16],9.76e-06 s⁻¹
same,kon,human IL-13 [16],1.07e+06 M⁻¹ s⁻¹
